We go through 4 molecules from article PMC9482650, “Quantitative fragmentomics allow affinity mapping of interactomes” (Nature Communications, 2022).

Changes are numbered by the printed parent chain.

Among the targets are Inadl_3, Q8NI35; NHERF4_2, Q86UT5; FRMPD2_1, Q68DX3; LIMK2, P53671; LAP2, Q96RT1; IL16_1, Q14005; DLG4_2, P78352; NHERF4_4, Q86UT5; LNX1_3, Q8TBB1.
Holding throughout (test): holdup assay
Holding throughout (design): key: below the threshold = too weak to quantify, mostly under pKd 3.1 to 4

Another test has as its target T1, TX1BP3, O14907.
T1 sequence (O14907 10-122, limits assumed, looked up): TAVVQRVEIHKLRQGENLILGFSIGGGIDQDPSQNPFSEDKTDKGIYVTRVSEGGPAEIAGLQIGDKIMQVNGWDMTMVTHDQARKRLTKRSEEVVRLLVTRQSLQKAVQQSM

The next test deals with T2, APBA2_2, Q99767.
T2 sequence (Q99767 654-744, limits assumed, looked up): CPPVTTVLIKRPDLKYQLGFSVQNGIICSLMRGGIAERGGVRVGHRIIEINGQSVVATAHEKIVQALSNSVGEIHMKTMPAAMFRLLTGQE

A further test has as its target T3, MPDZ_10, O75970.
T3 sequence (O75970 1624-1722, limits assumed, looked up): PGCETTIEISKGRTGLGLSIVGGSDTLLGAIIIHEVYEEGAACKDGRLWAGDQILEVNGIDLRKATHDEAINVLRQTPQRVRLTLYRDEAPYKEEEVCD

For the next test, the target named is T4, SHANK1, Q9Y566.
T4 sequence (Q9Y566 658-767, limits assumed, looked up): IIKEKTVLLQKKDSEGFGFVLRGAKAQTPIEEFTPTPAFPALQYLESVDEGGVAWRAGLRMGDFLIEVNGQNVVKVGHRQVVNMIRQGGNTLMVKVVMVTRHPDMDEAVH

The next test concerns the target T5, APBA1_2, Q02410.
T5 sequence (Q02410 742-832, limits assumed, looked up): T2 sequence (Q99767 654-744, limits assumed, looked up) with K10R, K15R, A59P, Q65H, A66I, S70A, F84Y, G89A

A further test has as its target T6, LNX2_3, Q8N448.
T6 sequence (Q8N448 463-564, limits assumed, looked up): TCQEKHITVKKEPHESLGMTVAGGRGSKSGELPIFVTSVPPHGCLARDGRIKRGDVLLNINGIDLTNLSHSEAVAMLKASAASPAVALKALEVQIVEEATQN

The next test concerns the target T7, NHERF3_4, Q5T2W1.
T7 sequence (Q5T2W1 373-468, limits assumed, looked up): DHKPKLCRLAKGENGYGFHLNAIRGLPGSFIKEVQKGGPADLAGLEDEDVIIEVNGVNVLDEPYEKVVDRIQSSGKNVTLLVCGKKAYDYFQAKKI

Another test concerns the target T8, PDZD2_2, O15018.
T8 sequence (O15018 329-429, limits assumed, looked up): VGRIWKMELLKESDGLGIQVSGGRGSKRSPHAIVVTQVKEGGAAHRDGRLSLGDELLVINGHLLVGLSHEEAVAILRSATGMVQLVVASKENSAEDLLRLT

The target of the next test is T9, NHERF3_3, Q5T2W1.
T9 sequence (Q5T2W1 238-333, limits assumed, looked up): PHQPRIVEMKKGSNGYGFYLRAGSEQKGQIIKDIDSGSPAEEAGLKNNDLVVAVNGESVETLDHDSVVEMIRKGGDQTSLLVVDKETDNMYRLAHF

Another test addresses T10, DFNB31_2, Q9P202.
T10 sequence (Q9P202 274-371, limits assumed, looked up): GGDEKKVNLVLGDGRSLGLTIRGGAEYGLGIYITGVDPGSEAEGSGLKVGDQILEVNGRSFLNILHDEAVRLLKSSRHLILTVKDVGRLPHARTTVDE

A further test deals with T11, FRMPD1, Q5SYB0.
T11 sequence (Q5SYB0 52-145, limits assumed, looked up): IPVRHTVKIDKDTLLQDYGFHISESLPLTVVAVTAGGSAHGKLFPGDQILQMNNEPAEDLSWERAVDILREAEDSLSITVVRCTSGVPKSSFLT

A further test has as its target T12, CARD11, Q9BXL7.
T12 sequence (Q9BXL7 662-765, limits assumed, looked up): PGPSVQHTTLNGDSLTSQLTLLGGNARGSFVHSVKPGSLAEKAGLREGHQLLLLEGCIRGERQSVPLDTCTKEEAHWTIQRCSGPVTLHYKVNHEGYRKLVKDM

The target in another test is T13, MPP7, Q5T2T1.
T13 sequence (Q5T2T1 134-230, limits assumed, looked up): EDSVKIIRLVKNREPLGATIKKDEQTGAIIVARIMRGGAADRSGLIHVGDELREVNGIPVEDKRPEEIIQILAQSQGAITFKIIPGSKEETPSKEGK

The target in another test is T14, MPP6, Q9NZW5.
T14 sequence (Q9NZW5 125-219, limits assumed, looked up): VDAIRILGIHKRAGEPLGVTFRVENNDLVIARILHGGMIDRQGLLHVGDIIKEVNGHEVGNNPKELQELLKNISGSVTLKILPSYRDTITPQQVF

[1] abbreviates: plain residues with an end cap or a label only (N-terminal biotin on a linker: ttds).
Where [2] appears, read: plain residues with an end cap or a label only (N-terminal biotin on a linker: ahx).

Chain of NHERF4_4, Q86UT5 (Q86UT5 464-550): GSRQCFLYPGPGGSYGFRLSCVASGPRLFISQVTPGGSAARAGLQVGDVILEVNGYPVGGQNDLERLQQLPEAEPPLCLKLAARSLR
Chain of LNX1_3, Q8TBB1 (Q8TBB1 500-596): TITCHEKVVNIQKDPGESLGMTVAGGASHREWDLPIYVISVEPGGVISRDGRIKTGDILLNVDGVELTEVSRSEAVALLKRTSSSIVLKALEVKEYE
Chain of LAP2, Q96RT1 (Q96RT1 other isoform, or with tags, fused parts or gaps): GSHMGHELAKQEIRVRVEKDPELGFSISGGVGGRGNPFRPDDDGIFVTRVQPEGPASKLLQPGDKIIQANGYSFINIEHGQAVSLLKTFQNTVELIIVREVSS
Chain of LIMK2, P53671 (P53671 143-248): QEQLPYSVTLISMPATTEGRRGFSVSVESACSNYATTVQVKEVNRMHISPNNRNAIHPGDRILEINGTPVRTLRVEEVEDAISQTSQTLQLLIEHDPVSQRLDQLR
Chain of DLG4_2, P78352 (P78352 155-259): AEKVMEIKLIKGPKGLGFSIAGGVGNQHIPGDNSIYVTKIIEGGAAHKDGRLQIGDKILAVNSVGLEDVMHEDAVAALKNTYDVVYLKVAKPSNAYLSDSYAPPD
Chain of NHERF4_2, Q86UT5 (Q86UT5 220-308): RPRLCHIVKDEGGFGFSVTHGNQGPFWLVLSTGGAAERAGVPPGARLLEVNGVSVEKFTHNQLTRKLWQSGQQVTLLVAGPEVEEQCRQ
Chain of FRMPD2_1, Q68DX3 (Q68DX3 770-861): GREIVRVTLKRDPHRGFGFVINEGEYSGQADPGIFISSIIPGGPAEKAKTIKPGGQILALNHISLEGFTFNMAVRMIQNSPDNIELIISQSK
Chain of Inadl_3, Q8NI35 (Q8NI35 359-469): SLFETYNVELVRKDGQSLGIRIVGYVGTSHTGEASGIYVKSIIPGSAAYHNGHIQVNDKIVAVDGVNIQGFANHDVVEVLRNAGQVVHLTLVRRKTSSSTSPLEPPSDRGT
Chain of IL16_1, Q14005 (Q14005 210-306): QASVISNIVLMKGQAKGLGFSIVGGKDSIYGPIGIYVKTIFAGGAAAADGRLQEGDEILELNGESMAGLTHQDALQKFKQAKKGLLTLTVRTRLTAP

For the molecule CLDTSRETDL [KCNA5, P22460], the pKd – broadly, the negative decadic logarithm of the Kd, by convention in mol/L – with TX1BP3, O14907 (setting [1]) was 4.28; with Inadl_3, Q8NI35 (setting [1]) it was “below the threshold”; with APBA2_2, Q99767 (setting [1]) it was “below the threshold”; in the test with MPDZ_10, O75970 (setting [1]), “below the threshold”; with SHANK1, Q9Y566 (setting [1]), 3.5; with APBA1_2, Q02410 (setting [1]), “below the threshold”. In addition, the negative-log Kd (pKd) result with LNX2_3, Q8N448 (setting [1]) was “below the threshold”; in the test with NHERF4_2, Q86UT5 (setting [1]) it was “below the threshold”; with NHERF3_4, Q5T2W1 (setting [1]), “below the threshold”; in the test with PDZD2_2, O15018 (setting [1]) it was 3.59; with NHERF3_3, Q5T2W1 (setting [1]), “below the threshold”; with FRMPD2_1, Q68DX3 (setting [1]), “below the threshold”. The pKd result with DFNB31_2, Q9P202 (setting [1]) is “below the threshold”; with LIMK2, P53671 (setting [1]), “below the threshold”; in the test with FRMPD1, Q5SYB0 (setting [1]), “below the threshold”; in the test with LAP2, Q96RT1 (setting [1]), 3.5; with IL16_1, Q14005 (setting [1]) it was 3.5; with CARD11, Q9BXL7 (setting [1]), “below the threshold”. For the same molecule, the pKd was 4.43 with DLG4_2, P78352 (setting [1]); “below the threshold” with NHERF4_4, Q86UT5 (setting [1]); “below the threshold” with LNX1_3, Q8TBB1 (setting [1]); “below the threshold” with MPP7, Q5T2T1 (setting [1]); “below the threshold” with MPP6, Q9NZW5 (setting [1]).

Turning to EDEDEQVSAV [RAPGEF2, Q9Y4G8], the pKd entry in the test with TX1BP3, O14907 (setting [2]) was “below the threshold”; with Inadl_3, Q8NI35 (setting [2]), “below the threshold”; with APBA2_2, Q99767 (setting [2]), “below the threshold”; with MPDZ_10, O75970 (setting [2]) it was 3.82; with SHANK1, Q9Y566 (setting [2]), 4.28; in the test with APBA1_2, Q02410 (setting [2]), 3.65. Moreover, the negative logarithm of the Kd (pKd) result in the test with LNX2_3, Q8N448 (setting [2]) is “below the threshold”; with NHERF4_2, Q86UT5 (setting [2]), “below the threshold”; with NHERF3_4, Q5T2W1 (setting [2]) it was “below the threshold”; with PDZD2_2, O15018 (setting [2]) it was 5.72; with NHERF3_3, Q5T2W1 (setting [2]) it was “below the threshold”; with FRMPD2_1, Q68DX3 (setting [2]), “below the threshold”. Moreover, the pKd entry with DFNB31_2, Q9P202 (setting [2]) was “below the threshold”; in the test with LIMK2, P53671 (setting [2]) it was “below the threshold”; with FRMPD1, Q5SYB0 (setting [2]), “below the threshold”; with LAP2, Q96RT1 (setting [2]), 3.62; with IL16_1, Q14005 (setting [2]), 4.17; in the test with CARD11, Q9BXL7 (setting [2]), “below the threshold”. Moreover, the pKd with DLG4_2, P78352 (setting [2]) was 3.95; with NHERF4_4, Q86UT5 (setting [2]), “below the threshold”; with LNX1_3, Q8TBB1 (setting [2]), “below the threshold”; with MPP7, Q5T2T1 (setting [2]), “below the threshold”; with MPP6, Q9NZW5 (setting [2]) it was “below the threshold”.

As for DEDQHTQITKV [PTEN, P60484], the pKd result with TX1BP3, O14907 (setting [1]) is “below the threshold”; in the test with Inadl_3, Q8NI35 (setting [1]), 3.45; with APBA2_2, Q99767 (setting [1]), “below the threshold”; in the test with MPDZ_10, O75970 (setting [1]) it was 3.98; in the test with SHANK1, Q9Y566 (setting [1]), 4.35; with APBA1_2, Q02410 (setting [1]), 4.02. The negative-log Kd (pKd) result in the test with LNX2_3, Q8N448 (setting [1]) is “below the threshold”; with NHERF4_2, Q86UT5 (setting [1]), “below the threshold”; with NHERF3_4, Q5T2W1 (setting [1]), 3.53; with PDZD2_2, O15018 (setting [1]), 3.71; with NHERF3_3, Q5T2W1 (setting [1]), 3.67; with FRMPD2_1, Q68DX3 (setting [1]), “below the threshold”. Also, the negative logarithm of the Kd (pKd) in the test with DFNB31_2, Q9P202 (setting [1]) was 3.62; with LIMK2, P53671 (setting [1]), “below the threshold”; with FRMPD1, Q5SYB0 (setting [1]) it was “below the threshold”; with LAP2, Q96RT1 (setting [1]), 3.82; with CARD11, Q9BXL7 (setting [1]), “below the threshold”; with DLG4_2, P78352 (setting [1]), 3.67. The negative logarithm of the Kd (pKd) result with NHERF4_4, Q86UT5 (setting [1]) is recorded as “below the threshold”; in the test with LNX1_3, Q8TBB1 (setting [1]), “below the threshold”; with MPP7, Q5T2T1 (setting [1]), “below the threshold”; with MPP6, Q9NZW5 (setting [1]), “below the threshold”.

As to LCKSHAFSHV [PDLIM7, Q9NR12;Q9NR12-1], the negative logarithm of the Kd (pKd) in the test with TX1BP3, O14907 (setting [2]) was 3.95; with Inadl_3, Q8NI35 (setting [2]) it was “below the threshold”; in the test with APBA2_2, Q99767 (setting [2]), “below the threshold”; in the test with MPDZ_10, O75970 (setting [2]) it was 4.07; with SHANK1, Q9Y566 (setting [2]) it was “below the threshold”; with LNX2_3, Q8N448 (setting [2]), “below the threshold”. In addition, the pKd entry in the test with NHERF4_2, Q86UT5 (setting [2]) is “below the threshold”; in the test with NHERF3_4, Q5T2W1 (setting [2]), “below the threshold”; with PDZD2_2, O15018 (setting [2]), 4.54; with NHERF3_3, Q5T2W1 (setting [2]), “below the threshold”; in the test with FRMPD2_1, Q68DX3 (setting [2]), “below the threshold”; with DFNB31_2, Q9P202 (setting [2]) it was “below the threshold”. The pKd entry with LIMK2, P53671 (setting [2]) is “below the threshold”; with FRMPD1, Q5SYB0 (setting [2]), “below the threshold”; with LAP2, Q96RT1 (setting [2]), “below the threshold”; with CARD11, Q9BXL7 (setting [2]), “below the threshold”; in the test with DLG4_2, P78352 (setting [2]), 3.49; in the test with NHERF4_4, Q86UT5 (setting [2]), “below the threshold”. The negative logarithm of the Kd (pKd) entry with LNX1_3, Q8TBB1 (setting [2]) was “below the threshold”; in the test with MPP7, Q5T2T1 (setting [2]), “below the threshold”; with MPP6, Q9NZW5 (setting [2]) it was “below the threshold”.
